In PMC10641069, “Intra- and inter-molecular regulation by intrinsically-disordered regions governs PUF protein RNA binding” (Nature Communications, 2023):
Entries after “also recorded” stand apart in the source; their conditions may differ.

T1: FBF-2 RBD + CT (Caenorhabditis elegans, UniProt Q09312)
T1 construct: A cDNA fragment encoding C. elegans FBF-2 RBD + CT (residues 164-632) was cloned into the pSMT3 vector; His6-SUMO (N, cleaved yes); made in house; host or cells: E. coli BL21-CodonPlus (DE3)-RIL
T1 sequence (Q09312 whole entry, looked up): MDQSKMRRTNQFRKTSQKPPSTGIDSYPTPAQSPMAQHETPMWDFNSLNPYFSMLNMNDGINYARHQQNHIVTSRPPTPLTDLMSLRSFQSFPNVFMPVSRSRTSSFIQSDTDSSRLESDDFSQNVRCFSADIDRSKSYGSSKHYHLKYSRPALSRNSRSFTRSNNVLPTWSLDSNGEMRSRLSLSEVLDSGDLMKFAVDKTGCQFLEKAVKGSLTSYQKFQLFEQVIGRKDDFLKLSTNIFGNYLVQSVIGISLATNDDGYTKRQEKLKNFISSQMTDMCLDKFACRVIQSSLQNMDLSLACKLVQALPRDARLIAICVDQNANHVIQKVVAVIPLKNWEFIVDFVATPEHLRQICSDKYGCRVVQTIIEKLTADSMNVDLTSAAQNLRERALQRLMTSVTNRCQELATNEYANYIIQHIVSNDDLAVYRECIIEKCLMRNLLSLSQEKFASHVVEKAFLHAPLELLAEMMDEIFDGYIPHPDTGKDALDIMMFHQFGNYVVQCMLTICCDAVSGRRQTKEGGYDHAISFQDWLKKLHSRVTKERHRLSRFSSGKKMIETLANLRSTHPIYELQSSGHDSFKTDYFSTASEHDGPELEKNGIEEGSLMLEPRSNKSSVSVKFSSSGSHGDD

T2: FBF-2 RBD+CT Y479A (Caenorhabditis elegans, UniProt Q09312 164-632, Y479A)
T2 sequence: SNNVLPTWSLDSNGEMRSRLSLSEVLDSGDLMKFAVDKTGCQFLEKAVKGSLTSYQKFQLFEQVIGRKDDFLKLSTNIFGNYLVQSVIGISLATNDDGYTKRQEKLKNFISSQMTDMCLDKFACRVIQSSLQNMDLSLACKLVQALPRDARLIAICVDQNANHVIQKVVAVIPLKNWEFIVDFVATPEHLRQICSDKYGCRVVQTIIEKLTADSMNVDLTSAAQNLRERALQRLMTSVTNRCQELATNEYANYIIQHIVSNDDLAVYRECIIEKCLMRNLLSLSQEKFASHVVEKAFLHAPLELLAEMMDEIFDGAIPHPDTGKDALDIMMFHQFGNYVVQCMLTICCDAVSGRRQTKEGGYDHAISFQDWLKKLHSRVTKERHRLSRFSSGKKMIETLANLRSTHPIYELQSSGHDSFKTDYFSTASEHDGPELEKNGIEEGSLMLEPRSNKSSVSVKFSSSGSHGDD

B1: gld-1 FBEa RNA (EMSA) (ssRNA)
RNA: AUCAUGUGCCAUAC

Experiments:
gld-1 FBEa RNA [1] = test: Electrophoretic mobility shift assay (EMSA), RNA binding; design: species or system C. elegans; conditions: LST-1 B 50 μM
FBF-2 RBD + CT = biological target: T1, FBF-2 RBD + CT; test: ITC, peptide into FBF-2 RBD + CT, no RNA; format: binding, C. elegans; conditions: 20 °C, pH 7.4
gld-1 FBEa RNA [2] = conditions: LST-1 peptide with FBF-2 RBD (no CT); cited from earlier work
Text: LST-1 is expressed in GSCs in response to signaling from the stem cell niche. The LST-1 protein is largely unstructured (Fig. 1b), including an N-terminal region that is sufficient for self-renewal of GSCs[22]. This LST-1 IDR region harbors two PUF Interacting Motifs (PIMs), LST-1 A and LST-1 B, that interact with FBF-2, each with a KxxL sequence[17],[22]. Crystal structures of FBF-2 bound to LST-1 A or B identify a seven-residue core region, including the KxxL sequence, that binds to FBF-2 with similar peptide backbone structure[17],[18]. The two LST-1 PIMs are biologically redundant for ... || If the FBF-2 CT reduces RNA-binding affinity (Fig. 3b) and competes with LST-1 for binding (Fig. 2c, d), why then does FBF-2 depend on LST-1 to repress RNAs in nematodes? To address this question, we explored RNA-binding affinities of FBF-2 RBD + CT in the presence of either LST-1 A or LST-1 B (Fig. 6; Supplementary Table 3). In contrast to results with FBF-2 RBD alone[17],[18], both LST-1 A and LST-1 B increased the RNA-binding affinity of FBF-2 RBD + CT.

FBF-2 RBD+CT Y479A = biological target: T2, FBF-2 RBD+CT Y479A; test: EMSA; 50 uM LST-1 B present (Y479A disrupts LST-1 binding, no complex); EMSA: FBF-2 in 20 mM HEPES pH 7.4, 150 mM NaCl, 0.5 mM TCEP mixed 1:1 with 5 nM final RNA in 10 mM HEPES pH 7.4, 0.01% Tween 20, 0.1 mg/ml BSA, 0.1 mg/ml yeast; conditions: protein: recombinant; tags: none (His6-SUMO removed with Ulp1); label: 3'-Cy5

Molecule | effect on RNA-binding affinity (gld-1 FBEa RNA [1]; of FBF-2 RBD + CT L610A) | effect on RNA-binding affinity (gld-1 FBEa RNA [1]; of FBF-2 RBD + CT Y479A) | -T∆S (FBF-2 RBD + CT; replicate 1) [kcal/mol] | ∆G (FBF-2 RBD + CT; replicate 1) [kcal/mol] | ∆H (FBF-2 RBD + CT; replicate 1) [kcal/mol] | -T∆S (FBF-2 RBD + CT; replicate 2) [kcal/mol] | ∆G (FBF-2 RBD + CT; replicate 2) [kcal/mol] | ∆H (FBF-2 RBD + CT; replicate 2) [kcal/mol] | effect on RNA-binding affinity of FBF-2 RBD (gld-1 FBEa RNA [2]) | Kd (FBF-2 RBD+CT Y479A) [nM]
LST-1 B: LST-1 B peptide, residues 67–98, expressed in E. coli (SSSPQQRSGLRSQKLHLTYIEKNKRVRAMIPQ; left off: His6-SUMO, N-terminal, cleaved) | little to no effect | no effect | 2.08 | -7.62 | -9.7 | 2.27 | -7.36 | -9.61 | decreased the RNA-binding affinity; also recorded: decreases RNA-binding affinity | 
B1 |  |  |  |  |  |  |  |  |  | 41 ± 6
